Two substances from paper PMC6973309 can be followed below.

For orientation: pIC50 means the IC50 on a negative log10 scale, so that one unit is a factor of ten.

pIC50: −log10 of the molar value. Like-named read-outs stand apart in the source and are kept apart here.

For assay [1], the target named is human CX3CR1 (human) (UniProt P49238).
The target is the same in assay [2]. Nature of the assay: flow cytometry on cells.
The target is the same in assay [3]. The experiment in a line: flow cytometry on cells. The source holds these as a separate data set.

Chain of human CX3CR1 (human) (P49238 whole entry): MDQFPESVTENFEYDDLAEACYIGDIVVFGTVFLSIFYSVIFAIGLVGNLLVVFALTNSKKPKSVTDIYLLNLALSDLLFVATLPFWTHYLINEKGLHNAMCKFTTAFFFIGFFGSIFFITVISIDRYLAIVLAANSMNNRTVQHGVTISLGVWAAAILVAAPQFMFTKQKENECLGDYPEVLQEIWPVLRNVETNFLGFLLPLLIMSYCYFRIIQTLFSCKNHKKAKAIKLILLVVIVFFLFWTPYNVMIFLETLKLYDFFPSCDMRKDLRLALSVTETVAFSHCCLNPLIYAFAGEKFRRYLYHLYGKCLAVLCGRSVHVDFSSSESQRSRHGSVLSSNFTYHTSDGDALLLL

Regarding BI 655089 (Fc fusion), in assay [1], the Chemotaxis IC50 (blocks m3 with m1) is 3 nM and the Ligand Internalization IC50 (blocks m3 with m1) was found to be 0.37 nM. Further, in assay [2], the negative-log IC50 (pIC50) was 9.15.
In assay [1], BI 655088 (VHH) gave a Chemotaxis IC50 (blocks m3 with m1) of 2.7 nM. The same substance registered a Ligand Internalization IC50 (blocks m3 with m1) in assay [1] of 0.33 nM. For the same substance, the pIC50 in assay [3] is 8.80; in assay [2], 9.40.
